Laboratory results: publication PMC7775534

Biological target: T1, DR_1836 (DrSRP protein, Ffh homolog) (Deinococcus radiodurans R1 (ATCC 13939)) (UniProt Q9RTC9)
T1 sequence: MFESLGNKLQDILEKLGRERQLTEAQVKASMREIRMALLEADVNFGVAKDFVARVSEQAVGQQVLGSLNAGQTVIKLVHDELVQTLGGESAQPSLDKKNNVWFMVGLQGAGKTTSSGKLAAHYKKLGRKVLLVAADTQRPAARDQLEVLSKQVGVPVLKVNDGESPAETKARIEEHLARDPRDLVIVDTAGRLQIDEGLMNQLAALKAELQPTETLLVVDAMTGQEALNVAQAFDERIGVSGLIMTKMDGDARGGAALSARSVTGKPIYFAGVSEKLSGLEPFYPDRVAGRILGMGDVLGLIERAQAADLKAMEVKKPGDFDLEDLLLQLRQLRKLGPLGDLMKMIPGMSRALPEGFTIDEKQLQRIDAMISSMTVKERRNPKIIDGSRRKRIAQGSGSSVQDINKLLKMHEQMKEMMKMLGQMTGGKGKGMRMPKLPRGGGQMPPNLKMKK
Test: EMSA
Details: 20 mM Tris-HCl pH 8.0, 1 mM MgCl2, 20 mM KCl, 10 mM Na phosphate pH 8.0, 10% glycerol, 0.2 mM DTT, 37 C 1 h; 4% native PAGE, 0.5x TBE, 4 C

GGGAGACGCCAGACGUAGGGCAGUACCCCCUUCUCUGCACAGCGCCCGCAACUGUGCUACCAUCCUUCCCGCAUUGCUGGUGCAGCGCAGCGCGGACGCCCGAACCUGGUCAGAGCCGGAAGGCAGCAGCCAUAAGGGAUGCUUUGCGGGUGCCGUUGCCUUCCGGCAAUGCUUUUUUCGUCUCUCCUCGGGGUCGCUUACGGGCGGCCCUGUUUUGUUGUGCUUAGAGCAAUUGACAGAA [Qpr6 (SRP RNA)]
binding: binds
